{
  "source": "paper PMC4268158",
  "about": "(Nature, 2014)",
  "binders": {"B1": {"name": "CsgE-his (pNH27), P0AE95 23-129 (natural protein)", "chain": "VEVEVPGLLTDHTVSSIGHDFYRAFSDKWESDYTGNLTINERPSARWGSWITITVNQDVIFQTFLFPLKRDFEKTVVFALIQTEEALNRRQINQALLSTGDLAHDEF"}, "B2": {"name": "CsgGC1S, non-lipidated soluble periplasmic form, C-terminally StrepII-tagged (pPG2) (natural protein, Escherichia coli, UniProt P0AEA2 16-277, looked up)", "chain": "SLTAPPKEAARPTLMPRAQSYKDLTHLPAPTGKIFVSVYNIQDETGQFKPYPASNFSTAVPQSATAMLVTALKDSRWFIPLERQGLQNLLNERKIIRAAQENGTVAINNRIPLQSLTAANIMVEGSIIGYESNVKSGGVGARYFGIGADTQYQLDQIAVNLRVVNVSTGEILSSVNTSKTILSYEVQAGVFRFIDYQRLLEGEVGYTSNEPVMLCLMSAIETGVIFLINDGIDRGLWDLQNKAERQNDILVKYRHMSVPPES"}, "B3": {"name": "CsgG, native membrane-extracted, C-terminally StrepII-tagged (pPG1) (natural protein, Escherichia coli, UniProt P0AEA2 16-277, looked up)", "chain": "CLTAPPKEAARPTLMPRAQSYKDLTHLPAPTGKIFVSVYNIQDETGQFKPYPASNFSTAVPQSATAMLVTALKDSRWFIPLERQGLQNLLNERKIIRAAQENGTVAINNRIPLQSLTAANIMVEGSIIGYESNVKSGGVGARYFGIGADTQYQLDQIAVNLRVVNVSTGEILSSVNTSKTILSYEVQAGVFRFIDYQRLLEGEVGYTSNEPVMLCLMSAIETGVIFLINDGIDRGLWDLQNKAERQNDILVKYRHMSVPPES", "modifications": "diacylglycerol- and amide-linked acyl chain on the N-terminal Cys (lipid anchor)"}},
  "key": {"[1]": {"target": "T1, CsgE-his (pNH27) (Escherichia coli), P0AE95", "T1 chain": "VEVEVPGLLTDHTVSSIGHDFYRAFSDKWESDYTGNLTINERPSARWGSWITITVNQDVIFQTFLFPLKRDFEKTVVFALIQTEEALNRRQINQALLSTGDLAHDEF", "assay": "SEC", "conditions": "remark: other sources report otherwise"}, "[2]": {"target": "T1, CsgE-his (pNH27) (Escherichia coli), …", "assay": "cryo-EM class averages", "conditions": "remark: other sources report otherwise"}, "[3]": {"target": "T1, CsgE-his (pNH27) (Escherichia coli), …", "assay": "negative-stain EM", "conditions": "remark: other sources report otherwise"}, "[4]": {"target": "T1, CsgE-his (pNH27) (Escherichia coli), …", "assay": "cryo-EM structure", "conditions": "remark: other sources report otherwise"}, "[5]": {"target": "the molecule itself", "assay": "SEC + other: negative-stain EM"}, "[6]": {"target": "the molecule itself", "assay": "cryo-EM structure"}, "[7]": {"target": "the molecule itself", "assay": "SEC + other: negative-stain EM", "remark": "listed apart in the source"}},
  "note": "Several values for one entry are separate records, joined by “and”; a condition that tells them apart may be missing. Equal entries are not always repeated.",
  "data": [
    {"binder": "B1", "values": [
      {"measurement": "stoichiometry N", "setting": "[1]", "value": 9.16},
      {"measurement": "stoichiometry N", "setting": "[2]", "value": 9},
      {"measurement": "stoichiometry N", "setting": "[3]", "value": 9},
      {"measurement": "stoichiometry N", "setting": "[4]", "value": 9}
    ]},
    {"binder": "B2", "values": [
      {"measurement": "stoichiometry N", "setting": "[5]", "value": "16 and 8"}
    ]},
    {"binder": "B3", "values": [
      {"measurement": "stoichiometry N", "setting": "[6]", "value": 9},
      {"measurement": "stoichiometry N", "setting": "[7]", "value": 18}
    ]}
  ]
}
